# Experimental data taken from paper PMC9482650, “Quantitative fragmentomics allow affinity mapping of interactomes” (Nature Communications, 2022).
# T1: APBA2_1, Q99767
# T1 sequence (Q99767 563-664, limits assumed, looked up): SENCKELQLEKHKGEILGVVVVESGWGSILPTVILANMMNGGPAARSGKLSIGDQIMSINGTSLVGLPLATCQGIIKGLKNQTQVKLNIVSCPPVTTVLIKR
# T2: APBA3_1, O96018
# T2 sequence (O96018 389-490, limits assumed, looked up): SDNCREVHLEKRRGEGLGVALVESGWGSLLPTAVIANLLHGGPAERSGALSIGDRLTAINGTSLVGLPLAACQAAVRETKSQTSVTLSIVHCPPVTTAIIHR
# T3: GRIP1_7, Q9Y3R0
# T3 sequence (Q9Y3R0 999-1096, limits assumed, looked up): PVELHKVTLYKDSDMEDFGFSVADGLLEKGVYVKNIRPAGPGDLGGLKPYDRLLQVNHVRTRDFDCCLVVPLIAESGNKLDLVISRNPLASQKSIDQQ
# T4: HTRA4, P83105
# T4 sequence (P83105 378-476, limits assumed, looked up): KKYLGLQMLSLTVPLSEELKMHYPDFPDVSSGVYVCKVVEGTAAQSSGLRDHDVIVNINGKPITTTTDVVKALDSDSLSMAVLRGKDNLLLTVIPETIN
# T5: LNX2_3, Q8N448
# T5 sequence (Q8N448 463-564, limits assumed, looked up): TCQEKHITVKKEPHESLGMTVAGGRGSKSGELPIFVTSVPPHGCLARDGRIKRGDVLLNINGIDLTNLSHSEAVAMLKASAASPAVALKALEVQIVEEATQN
# T6: MPP6, Q9NZW5
# T6 sequence (Q9NZW5 125-219, limits assumed, looked up): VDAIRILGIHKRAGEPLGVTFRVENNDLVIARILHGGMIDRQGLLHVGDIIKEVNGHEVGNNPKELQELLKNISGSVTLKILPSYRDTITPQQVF
# T7: PDZD2_2, O15018
# T7 sequence (O15018 329-429, limits assumed, looked up): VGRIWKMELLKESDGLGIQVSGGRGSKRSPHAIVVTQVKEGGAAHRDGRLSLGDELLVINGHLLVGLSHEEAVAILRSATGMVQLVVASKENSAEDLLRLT
# T8: RADIL, Q96JH8
# T8 sequence (Q96JH8 971-1071, limits assumed, looked up): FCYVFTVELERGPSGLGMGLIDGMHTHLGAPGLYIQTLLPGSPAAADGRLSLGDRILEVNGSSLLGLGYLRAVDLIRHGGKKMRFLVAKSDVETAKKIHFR
# T9: RAPGEF6, Q8TEU7
# T9 sequence (Q8TEU7 525-625, limits assumed, looked up): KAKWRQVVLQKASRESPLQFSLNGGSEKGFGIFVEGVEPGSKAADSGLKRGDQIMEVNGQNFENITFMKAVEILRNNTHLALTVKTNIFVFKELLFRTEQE
# T10: SNTB1, Q13884
# T10 sequence (Q13884 107-205, limits assumed, looked up): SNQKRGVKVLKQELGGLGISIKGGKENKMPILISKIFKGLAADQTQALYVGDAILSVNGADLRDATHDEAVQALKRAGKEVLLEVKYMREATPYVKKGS
# T11: SNTG1, Q9NSN8
# T11 sequence (Q9NSN8 52-150, limits assumed, looked up): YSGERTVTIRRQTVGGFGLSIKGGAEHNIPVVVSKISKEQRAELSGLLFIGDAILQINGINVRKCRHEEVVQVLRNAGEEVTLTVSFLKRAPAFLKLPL
# T12: TIAM2, Q8IVF5
# T12 sequence (Q8IVF5 885-986, limits assumed, looked up): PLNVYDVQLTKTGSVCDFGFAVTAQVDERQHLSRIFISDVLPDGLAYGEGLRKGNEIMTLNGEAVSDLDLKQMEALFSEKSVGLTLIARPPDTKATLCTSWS
# Target: T1, APBA2_1, Q99767
# Assay: holdup assay
# Set-up: key: below the threshold = too weak to quantify, mostly under pKd 3.1 to 4
# Details: plain residues with an end cap or a label only (N-terminal biotin on a linker: ado-ado)
row,Binder,pKd
1,"RKPKPSSSCC [RAB9A, P51151]",below the threshold
2,"YRLAQESGLV [ABCC6, O95255]",below the threshold

# Target: T2, APBA3_1, O96018
# Assay: holdup assay
# Set-up: key: below the threshold = too weak to quantify, mostly under pKd 3.1 to 4
# Details: plain residues with an end cap or a label only (N-terminal biotin on a linker: ado-ado)
row,Binder,pKd
1,"RKPKPSSSCC [RAB9A, P51151]",below the threshold
2,"YRLAQESGLV [ABCC6, O95255]",below the threshold

# Target: DLG1_1, Q12959
# Assay: holdup assay
# Set-up: key: below the threshold = too weak to quantify, mostly under pKd 3.1 to 4
# Details: plain residues with an end cap or a label only (N-terminal biotin on a linker: ado-ado)
row,Binder,pKd
1,"RKPKPSSSCC [RAB9A, P51151]",below the threshold
2,"YRLAQESGLV [ABCC6, O95255]",below the threshold

# Target: DLG4_1, P78352
# Sequence (P78352 62-152): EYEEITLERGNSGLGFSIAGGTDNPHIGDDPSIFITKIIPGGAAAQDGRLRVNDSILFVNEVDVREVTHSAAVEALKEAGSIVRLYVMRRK
# Assay: holdup assay
# Set-up: key: below the threshold = too weak to quantify, mostly under pKd 3.1 to 4
# Details: plain residues with an end cap or a label only (N-terminal biotin on a linker: ado-ado)
row,Binder,pKd
1,"RKPKPSSSCC [RAB9A, P51151]",below the threshold
2,"YRLAQESGLV [ABCC6, O95255]",below the threshold

# Target: DLG5_1, Q8TDM6
# Sequence (Q8TDM6 617-713): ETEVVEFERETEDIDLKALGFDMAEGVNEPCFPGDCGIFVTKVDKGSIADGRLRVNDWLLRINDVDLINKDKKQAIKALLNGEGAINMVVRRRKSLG
# Assay: holdup assay
# Set-up: key: below the threshold = too weak to quantify, mostly under pKd 3.1 to 4
# Details: plain residues with an end cap or a label only (N-terminal biotin on a linker: ado-ado)
row,Binder,pKd
1,"RKPKPSSSCC [RAB9A, P51151]",below the threshold
2,"YRLAQESGLV [ABCC6, O95255]",below the threshold

# Target: FRMPD2_2, Q68DX3
# Sequence (Q68DX3 944-1038): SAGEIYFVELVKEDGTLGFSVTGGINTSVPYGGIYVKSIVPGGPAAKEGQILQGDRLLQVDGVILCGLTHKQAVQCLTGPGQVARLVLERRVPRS
# Assay: holdup assay
# Set-up: key: below the threshold = too weak to quantify, mostly under pKd 3.1 to 4
# Details: plain residues with an end cap or a label only (N-terminal biotin on a linker: ado-ado)
row,Binder,pKd
1,"RKPKPSSSCC [RAB9A, P51151]",below the threshold
2,"YRLAQESGLV [ABCC6, O95255]",below the threshold

# Target: T3, GRIP1_7, Q9Y3R0
# Assay: holdup assay
# Set-up: key: below the threshold = too weak to quantify, mostly under pKd 3.1 to 4
# Details: plain residues with an end cap or a label only (N-terminal biotin on a linker: ado-ado)
row,Binder,pKd
1,"RKPKPSSSCC [RAB9A, P51151]",below the threshold
2,"YRLAQESGLV [ABCC6, O95255]",below the threshold

# Target: GRIP2_4, Q9C0E4
# Sequence (Q9C0E4 446-548): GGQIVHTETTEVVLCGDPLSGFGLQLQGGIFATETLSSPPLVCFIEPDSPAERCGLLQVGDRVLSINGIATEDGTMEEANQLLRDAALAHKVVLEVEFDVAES
# Assay: holdup assay
# Set-up: key: below the threshold = too weak to quantify, mostly under pKd 3.1 to 4
# Details: plain residues with an end cap or a label only (N-terminal biotin on a linker: ado-ado)
row,Binder,pKd
1,"RKPKPSSSCC [RAB9A, P51151]",below the threshold
2,"YRLAQESGLV [ABCC6, O95255]",below the threshold

# Target: GRIP2_5, Q9C0E4
# Sequence (Q9C0E4 544-642): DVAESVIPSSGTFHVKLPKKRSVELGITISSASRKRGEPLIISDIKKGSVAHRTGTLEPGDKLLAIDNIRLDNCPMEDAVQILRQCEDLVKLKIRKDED
# Assay: holdup assay
# Set-up: key: below the threshold = too weak to quantify, mostly under pKd 3.1 to 4
# Details: plain residues with an end cap or a label only (N-terminal biotin on a linker: ado-ado)
row,Binder,pKd
1,"RKPKPSSSCC [RAB9A, P51151]",below the threshold
2,"YRLAQESGLV [ABCC6, O95255]",below the threshold

# Target: GRIP2_6, Q9C0E4
# Sequence (Q9C0E4 648-740): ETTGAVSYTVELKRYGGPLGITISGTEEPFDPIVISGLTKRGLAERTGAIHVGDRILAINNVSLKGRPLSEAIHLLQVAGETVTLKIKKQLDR
# Assay: holdup assay
# Set-up: key: below the threshold = too weak to quantify, mostly under pKd 3.1 to 4
# Details: plain residues with an end cap or a label only (N-terminal biotin on a linker: ado-ado)
row,Binder,pKd
1,"RKPKPSSSCC [RAB9A, P51151]",below the threshold
2,"YRLAQESGLV [ABCC6, O95255]",below the threshold

# Target: T4, HTRA4, P83105
# Assay: holdup assay
# Set-up: key: below the threshold = too weak to quantify, mostly under pKd 3.1 to 4
# Details: plain residues with an end cap or a label only (N-terminal biotin on a linker: ado-ado)
row,Binder,pKd
1,"RKPKPSSSCC [RAB9A, P51151]",below the threshold
2,"YRLAQESGLV [ABCC6, O95255]",3.79

# Target: Inadl_2, Q8NI35
# Sequence (Q8NI35 238-335): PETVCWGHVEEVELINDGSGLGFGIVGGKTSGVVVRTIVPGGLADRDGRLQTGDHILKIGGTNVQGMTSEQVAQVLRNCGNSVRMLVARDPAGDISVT
# Assay: holdup assay
# Set-up: key: below the threshold = too weak to quantify, mostly under pKd 3.1 to 4
# Details: plain residues with an end cap or a label only (N-terminal biotin on a linker: ado-ado)
row,Binder,pKd
1,"RKPKPSSSCC [RAB9A, P51151]",below the threshold
2,"YRLAQESGLV [ABCC6, O95255]",below the threshold

# Target: Inadl_3, Q8NI35
# Sequence (Q8NI35 359-469): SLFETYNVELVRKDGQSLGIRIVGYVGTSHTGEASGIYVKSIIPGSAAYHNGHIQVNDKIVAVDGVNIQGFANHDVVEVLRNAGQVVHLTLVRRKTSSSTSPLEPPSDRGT
# Assay: holdup assay
# Set-up: key: below the threshold = too weak to quantify, mostly under pKd 3.1 to 4
# Details: plain residues with an end cap or a label only (N-terminal biotin on a linker: ado-ado)
row,Binder,pKd
1,"RKPKPSSSCC [RAB9A, P51151]",below the threshold
2,"YRLAQESGLV [ABCC6, O95255]",below the threshold

# Target: Inadl_5, Q8NI35
# Sequence (Q8NI35 673-780): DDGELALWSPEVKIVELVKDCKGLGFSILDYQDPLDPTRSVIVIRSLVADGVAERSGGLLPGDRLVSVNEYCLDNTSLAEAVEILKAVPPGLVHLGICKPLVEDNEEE
# Assay: holdup assay
# Set-up: key: below the threshold = too weak to quantify, mostly under pKd 3.1 to 4
# Details: plain residues with an end cap or a label only (N-terminal biotin on a linker: ado-ado)
row,Binder,pKd
1,"RKPKPSSSCC [RAB9A, P51151]",below the threshold
2,"YRLAQESGLV [ABCC6, O95255]",below the threshold

# Target: LIMK2, P53671
# Sequence (P53671 143-248): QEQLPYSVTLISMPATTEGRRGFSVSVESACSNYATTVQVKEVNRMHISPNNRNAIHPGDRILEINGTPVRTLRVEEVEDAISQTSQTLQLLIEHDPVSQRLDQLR
# Assay: holdup assay
# Set-up: key: below the threshold = too weak to quantify, mostly under pKd 3.1 to 4
# Details: plain residues with an end cap or a label only (N-terminal biotin on a linker: ado-ado)
row,Binder,pKd
1,"RKPKPSSSCC [RAB9A, P51151]",below the threshold
2,"YRLAQESGLV [ABCC6, O95255]",below the threshold

# Target: T5, LNX2_3, Q8N448
# Assay: holdup assay
# Set-up: key: below the threshold = too weak to quantify, mostly under pKd 3.1 to 4
# Details: plain residues with an end cap or a label only (N-terminal biotin on a linker: ado-ado)
row,Binder,pKd
1,"RKPKPSSSCC [RAB9A, P51151]",below the threshold
2,"YRLAQESGLV [ABCC6, O95255]",below the threshold

# Target: T6, MPP6, Q9NZW5
# Assay: holdup assay
# Set-up: key: below the threshold = too weak to quantify, mostly under pKd 3.1 to 4
# Details: plain residues with an end cap or a label only (N-terminal biotin on a linker: ado-ado)
row,Binder,pKd
1,"RKPKPSSSCC [RAB9A, P51151]",3.51
2,"YRLAQESGLV [ABCC6, O95255]",3.74

# Target: PDLIM1, O00151
# Sequence (O00151 1-87): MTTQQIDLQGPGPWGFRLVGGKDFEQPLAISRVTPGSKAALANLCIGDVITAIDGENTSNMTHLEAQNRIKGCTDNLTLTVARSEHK
# Assay: holdup assay
# Set-up: key: below the threshold = too weak to quantify, mostly under pKd 3.1 to 4
# Details: plain residues with an end cap or a label only (N-terminal biotin on a linker: ado-ado)
row,Binder,pKd
1,"RKPKPSSSCC [RAB9A, P51151]",below the threshold
2,"YRLAQESGLV [ABCC6, O95255]",below the threshold

# Target: T7, PDZD2_2, O15018
# Assay: holdup assay
# Set-up: key: below the threshold = too weak to quantify, mostly under pKd 3.1 to 4
# Details: plain residues with an end cap or a label only (N-terminal biotin on a linker: ado-ado)
row,Binder,pKd
1,"RKPKPSSSCC [RAB9A, P51151]",4.35
2,"YRLAQESGLV [ABCC6, O95255]",3.51

# Target: T8, RADIL, Q96JH8
# Assay: holdup assay
# Set-up: key: below the threshold = too weak to quantify, mostly under pKd 3.1 to 4
# Details: plain residues with an end cap or a label only (N-terminal biotin on a linker: ado-ado)
row,Binder,pKd
1,"RKPKPSSSCC [RAB9A, P51151]",below the threshold
2,"YRLAQESGLV [ABCC6, O95255]",4.22

# Target: T9, RAPGEF6, Q8TEU7
# Assay: holdup assay
# Set-up: key: below the threshold = too weak to quantify, mostly under pKd 3.1 to 4
# Details: plain residues with an end cap or a label only (N-terminal biotin on a linker: ado-ado)
row,Binder,pKd
1,"RKPKPSSSCC [RAB9A, P51151]",below the threshold
2,"YRLAQESGLV [ABCC6, O95255]",below the threshold

# Target: T10, SNTB1, Q13884
# Assay: holdup assay
# Set-up: key: below the threshold = too weak to quantify, mostly under pKd 3.1 to 4
# Details: plain residues with an end cap or a label only (N-terminal biotin on a linker: ado-ado)
row,Binder,pKd
1,"RKPKPSSSCC [RAB9A, P51151]",below the threshold
2,"YRLAQESGLV [ABCC6, O95255]",3.57

# Target: T11, SNTG1, Q9NSN8
# Assay: holdup assay
# Set-up: key: below the threshold = too weak to quantify, mostly under pKd 3.1 to 4
# Details: plain residues with an end cap or a label only (N-terminal biotin on a linker: ado-ado)
row,Binder,pKd
1,"RKPKPSSSCC [RAB9A, P51151]",below the threshold
2,"YRLAQESGLV [ABCC6, O95255]",below the threshold

# Target: T12, TIAM2, Q8IVF5
# Assay: holdup assay
# Set-up: key: below the threshold = too weak to quantify, mostly under pKd 3.1 to 4
# Details: plain residues with an end cap or a label only (N-terminal biotin on a linker: ado-ado)
row,Binder,pKd
1,"RKPKPSSSCC [RAB9A, P51151]",3.8
2,"YRLAQESGLV [ABCC6, O95255]",below the threshold

# Target: TJP1_3, Q07157
# Sequence (Q07157 416-512): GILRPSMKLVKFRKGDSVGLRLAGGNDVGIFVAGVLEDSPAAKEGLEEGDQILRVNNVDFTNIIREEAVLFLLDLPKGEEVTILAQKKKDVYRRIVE
# Assay: holdup assay
# Set-up: key: below the threshold = too weak to quantify, mostly under pKd 3.1 to 4
# Details: plain residues with an end cap or a label only (N-terminal biotin on a linker: ado-ado)
row,Binder,pKd
1,"RKPKPSSSCC [RAB9A, P51151]",below the threshold
2,"YRLAQESGLV [ABCC6, O95255]",below the threshold
